Laboratory results taken from patent US20070135998A1.
pKd: −log10 of the molar value.

Target: VLA1 I-domain protein (human) (UniProt P56199)
Test: KinExA, solution phase affinity, scFv

Sequence of UniProt P56199 (P56199 173-364 limits assumed): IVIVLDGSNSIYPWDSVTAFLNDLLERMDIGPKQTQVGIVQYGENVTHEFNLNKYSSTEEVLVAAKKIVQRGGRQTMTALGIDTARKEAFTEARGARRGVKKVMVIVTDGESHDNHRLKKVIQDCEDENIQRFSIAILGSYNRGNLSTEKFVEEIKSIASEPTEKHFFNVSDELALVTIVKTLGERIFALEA

pKd | Substance
7.31 | AQC2 single chain Fv mutant, light chain N52K (scFv)
8.39 | AQC2 single chain Fv mutant, heavy chain K64N (scFv)
7.77 | AQC2 single chain Fv mutant, light chain N52R (scFv)
7.17 | AQC2 single chain Fv mutant, heavy chain D106N (scFv)
7.51 | AQC2 single chain Fv mutant, light chain H31R (scFv)
7.47 | AQC2 single chain Fv mutant, heavy chain Y32F (scFv)
7.85 | AQC2 single chain Fv mutant, heavy chain T50V (scFv)
7.60 | AQC2 single chain Fv (original) (scFv)
8.20 | AQC2 single chain Fv mutant, heavy chain K64D (scFv)
7.42 | AQC2 single chain Fv mutant, heavy chain K64E (scFv)
7.92 | AQC2 single chain Fv mutant, heavy chain K64Q (scFv)
7.37 | AQC2 single chain Fv mutant, light chain N52H (scFv)
8.09 | AQC2 single chain Fv mutant, heavy chain R31Q (scFv)
7.41 | AQC2 single chain Fv mutant, heavy chain S35N (scFv)
7.68 | AQC2 single chain Fv mutant, heavy chain L60D (scFv)
8.05 | AQC2 single chain Fv mutant, light chain N30V (scFv)
7.43 | AQC2 single chain Fv mutant, heavy chain S35Q (scFv)
